In patent publication US20260125454A1 (SHANGHAI JUNSHI BIOSCIENCES, published 2026):

T1: Biotin-huCGRPaSA (human, not fully specified; biotin (position not given))
T1 construct: exact construct ('aSA') not explained; also called Biotin CGRPaSA; full-length (1-37) CGRP
T1 peptide: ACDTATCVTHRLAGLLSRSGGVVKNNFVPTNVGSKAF


Molecular target: T1, Biotin-huCGRPaSA
Experiment: ELISA, supernatant; relative to chimeric C245
In short: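 Plates coated with biotin-CGRPaSA at 1.0 μg/mL (90 min, 37°C) and blocked with 2% BSA. Humanized antibodies and chimeric C245 reference, 2.5-fold serial dilutions from 1000 ng/mL, bound 60 min at 37°C. Detection by HRP anti-human IgG (Fc), TMB 15 min, read at 450/620 nm.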

Binder | Relative binding activity, %
hu209 (antibody, V domains shown, 3H10 HC-2/1A2 LC2-1) VH: QVQLVQSGAEVKKPGASVKVSCKASGYTFTDYNMHWVRQAPGQGLEWMGYIYPYNGHTVYNQKFRNRVTLTVDTSSSTAYMELRSLRSDDTAVYYCAREGLGGYWGQGTLVTVSS VL: DIVLTQSPASLAVSPGQRATITCKASQNIDYDGYAYLNWYQQKPGQPPKVLIYSVFNLESGVPARFSGSGSGTDFTLTINPVEANDTANYYCQQSNEFPYTFGQGTKLEIK | 64%
hu213 (antibody, V domains shown, 3H10 HC-2/1F5 LC1-1) VH: QVQLVQSGAEVKKPGASVKVSCKASGYTFTDYNMHWVRQAPGQGLEWMGYIYPYNGHTVYNQKFRNRVTLTVDTSSSTAYMELRSLRSDDTAVYYCAREGLGGYWGQGTLVTVSS VL: EIVLTQSPATLSLSPGERATLSCKASQNIDFDGYAYMNWYQQKPGQAPRVLIYSVFNLESGIPARFSGSGSGTDFTLTISSLEPEDFAVYYCQQSHEVPYTFGQGTKLEIK | 38%
hu215 (antibody, V domains shown, 3H10 HC-2/1F5 LC1-3) VH: QVQLVQSGAEVKKPGASVKVSCKASGYTFTDYNMHWVRQAPGQGLEWMGYIYPYNGHTVYNQKFRNRVTLTVDTSSSTAYMELRSLRSDDTAVYYCAREGLGGYWGQGTLVTVSS VL: DIVLTQSPASLAVSPGQRATITCKASQNIDFDGYAYMNWYQQKPGQPPKVLIYSVFNLESGVPARFSGSGSGTDFTLTINPVEADDTANYYCQQSHEVPYTFGQGTKLEIK | 94%
hu42 (antibody, V domains shown, 1F5 HC-2/1A2 LC2-3) VH: QVQLVQSGAEVKKPGASVKVSCKASGYTFTDFNMHWVRQAPGQRLEWMGYIYPYNGDVVYNQNFTNRVTLTVDTSSSTAYMELSSLRSEDTAVYYCAREGLGGYWGQGTLVTVSS VL: EIVLTQSPATLSLSPGERATLSCKASQNIDYDGYAYLNWYQQKPGQAPRVLIYSVFNLESGIPARFSGSGSGTDFTLTISSLEPEDFAVYYCQQSNEFPYTFGQGTKLEIK | 55%
hu107 (antibody, V domains shown, 2B8 HC1-1/1A2 LC2-3) VH: QVQLVQSGAEVKKPGASVKVSCKASGYTFTDYNMHWVRQAPGQGLEWMGNIYPYNGGTVYNQKFNNRVTLTVDTSSSTAYMELSRLRSDDTAVYYCAREGLGGYWGQGTLVTVSS VL: EIVLTQSPATLSLSPGERATLSCKASQNIDYDGYAYLNWYQQKPGQAPRVLIYSVFNLESGIPARFSGSGSGTDFTLTISSLEPEDFAVYYCQQSNEFPYTFGQGTKLEIK | 73%
hu83 (antibody, V domains shown, 1F5 HC-5/1F5 LC1-1) VH: QVQLVQSGAEVKKPGASVKVSCKASGYTFIDFNMHWVRQAPGQRLEWMGYIYPYNADVVYNQDFTNRVTLTVDTSSSTAYMELSSLRSEDTAVYYCAREGLGGYWGQGTLVTVSS VL: EIVLTQSPATLSLSPGERATLSCKASQNIDFDGYAYMNWYQQKPGQAPRVLIYSVFNLESGIPARFSGSGSGTDFTLTISSLEPEDFAVYYCQQSHEVPYTFGQGTKLEIK | 102%
hu110 (antibody, V domains shown, 2B8 HC1-1/1F5 LC1-2) VH: QVQLVQSGAEVKKPGASVKVSCKASGYTFTDYNMHWVRQAPGQGLEWMGNIYPYNGGTVYNQKFNNRVTLTVDTSSSTAYMELSRLRSDDTAVYYCAREGLGGYWGQGTLVTVSS VL: EIVLTQSPATLSLSPGERATLSCKASQNIDFDGYAYMNWYQHKPGQAPRVLIYSVFNLESGIPARFSGSGSGTDFTLTISSLEPEDFAVYYCQQSHEVPYTFGQGTKLEIK | 85%
hu109 (antibody, V domains shown, 2B8 HC1-1/1F5 LC1-1) VH: QVQLVQSGAEVKKPGASVKVSCKASGYTFTDYNMHWVRQAPGQGLEWMGNIYPYNGGTVYNQKFNNRVTLTVDTSSSTAYMELSRLRSDDTAVYYCAREGLGGYWGQGTLVTVSS VL: EIVLTQSPATLSLSPGERATLSCKASQNIDFDGYAYMNWYQQKPGQAPRVLIYSVFNLESGIPARFSGSGSGTDFTLTISSLEPEDFAVYYCQQSHEVPYTFGQGTKLEIK | 78%
hu97 (antibody, V domains shown, 2A2 HC-1/1F5 LC1-2) VH: QVQLVQSGAEVKKPGASVKVSCKASGYTFTDYNMHWVRQAPGQRLEWMGYVYPYNGGSAYNQKFKSRVTLTVDTSSSTAYMELSSLRSEDTAVYYCAREGLGGYWGQGTLVTVSS VL: EIVLTQSPATLSLSPGERATLSCKASQNIDFDGYAYMNWYQHKPGQAPRVLIYSVFNLESGIPARFSGSGSGTDFTLTISSLEPEDFAVYYCQQSHEVPYTFGQGTKLEIK | 82%
hu57 (antibody, V domains shown, 1F5 HC-3/1F5 LC1-1) VH: QVQLVQSGAEVKKPGASVKVSCKASGYTFTDFNMHWVRQAPGQGLEWMGYIYPYNGDVVYNQNFTNRVTLTVDTSSSTAYMELRSLRSDDTAVYYCAREGLGGYWGQGTLVTVSS VL: EIVLTQSPATLSLSPGERATLSCKASQNIDFDGYAYMNWYQQKPGQAPRVLIYSVFNLESGIPARFSGSGSGTDFTLTISSLEPEDFAVYYCQQSHEVPYTFGQGTKLEIK | 78%
hu5 (antibody, V domains shown, 1B2 HC-1/1F5 LC1-1) VH: QVQLVQSGAEVKKPGASVKVSCKASGYTFTDYNMHWVRQAPGQGLEWMGYIFPYNGVAVYNRKFRSRVTLTIDTSSSTAYMELRSLRSDDTAVYYCAREGLGGYWGQGTLVTVSS VL: EIVLTQSPATLSLSPGERATLSCKASQNIDFDGYAYMNWYQQKPGQAPRVLIYSVFNLESGIPARFSGSGSGTDFTLTISSLEPEDFAVYYCQQSHEVPYTFGQGTKLEIK | 88%
hu3 (antibody, V domains shown, 1B2 HC-1/1A2 LC2-3) VH: QVQLVQSGAEVKKPGASVKVSCKASGYTFTDYNMHWVRQAPGQGLEWMGYIFPYNGVAVYNRKFRSRVTLTIDTSSSTAYMELRSLRSDDTAVYYCAREGLGGYWGQGTLVTVSS VL: EIVLTQSPATLSLSPGERATLSCKASQNIDYDGYAYLNWYQQKPGQAPRVLIYSVFNLESGIPARFSGSGSGTDFTLTISSLEPEDFAVYYCQQSNEFPYTFGQGTKLEIK | 41%
hu16 (antibody, V domains shown, 1B2 HC-2/1A2 LC2-3) VH: QVQLVQSGAEVKKPGASVKVSCKASGYTFTDYNMHWVRQAPGQRLEWMGYIFPYNGVAVYNRKFRSRVTLTVDTSSSTAYMELSSLRSEDTAVYYCAREGLGGYWGQGTLVTVSS VL: EIVLTQSPATLSLSPGERATLSCKASQNIDYDGYAYLNWYQQKPGQAPRVLIYSVFNLESGIPARFSGSGSGTDFTLTISSLEPEDFAVYYCQQSNEFPYTFGQGTKLEIK | 39%
hu44 (antibody, V domains shown, 1F5 HC-2/1F5 LC1-1) VH: QVQLVQSGAEVKKPGASVKVSCKASGYTFTDFNMHWVRQAPGQRLEWMGYIYPYNGDVVYNQNFTNRVTLTVDTSSSTAYMELSSLRSEDTAVYYCAREGLGGYWGQGTLVTVSS VL: EIVLTQSPATLSLSPGERATLSCKASQNIDFDGYAYMNWYQQKPGQAPRVLIYSVFNLESGIPARFSGSGSGTDFTLTISSLEPEDFAVYYCQQSHEVPYTFGQGTKLEIK | 99%
hu31 (antibody, V domains shown, 1F5 HC-1/1F5 LC1-1) VH: QVQLVQSGAEVKKPGASVKVSCKASGYTFIDFNMHWVRQAPGQRLEWMGYIYPYNGDVVYNQNFTNRVTLTVDTSSSTAYMELSSLRSEDTAVYYCAREGLGGYWGQGTLVTVSS VL: EIVLTQSPATLSLSPGERATLSCKASQNIDFDGYAYMNWYQQKPGQAPRVLIYSVFNLESGIPARFSGSGSGTDFTLTISSLEPEDFAVYYCQQSHEVPYTFGQGTKLEIK | 79%
hu96 (antibody, V domains shown, 2A2 HC-1/1F5 LC1-1) VH: QVQLVQSGAEVKKPGASVKVSCKASGYTFTDYNMHWVRQAPGQRLEWMGYVYPYNGGSAYNQKFKSRVTLTVDTSSSTAYMELSSLRSEDTAVYYCAREGLGGYWGQGTLVTVSS VL: EIVLTQSPATLSLSPGERATLSCKASQNIDFDGYAYMNWYQQKPGQAPRVLIYSVFNLESGIPARFSGSGSGTDFTLTISSLEPEDFAVYYCQQSHEVPYTFGQGTKLEIK | 82%
hu55 (antibody, V domains shown, 1F5 HC-3/1A2 LC2-3) VH: QVQLVQSGAEVKKPGASVKVSCKASGYTFTDFNMHWVRQAPGQGLEWMGYIYPYNGDVVYNQNFTNRVTLTVDTSSSTAYMELRSLRSDDTAVYYCAREGLGGYWGQGTLVTVSS VL: EIVLTQSPATLSLSPGERATLSCKASQNIDYDGYAYLNWYQQKPGQAPRVLIYSVFNLESGIPARFSGSGSGTDFTLTISSLEPEDFAVYYCQQSNEFPYTFGQGTKLEIK | 18%
hu18 (antibody, V domains shown, 1B2 HC-2/1F5 LC1-1) VH: QVQLVQSGAEVKKPGASVKVSCKASGYTFTDYNMHWVRQAPGQRLEWMGYIFPYNGVAVYNRKFRSRVTLTVDTSSSTAYMELSSLRSEDTAVYYCAREGLGGYWGQGTLVTVSS VL: EIVLTQSPATLSLSPGERATLSCKASQNIDFDGYAYMNWYQQKPGQAPRVLIYSVFNLESGIPARFSGSGSGTDFTLTISSLEPEDFAVYYCQQSHEVPYTFGQGTKLEIK | 67%
hu6 (antibody, V domains shown, 1B2 HC-1/1F5 LC1-2) VH: QVQLVQSGAEVKKPGASVKVSCKASGYTFTDYNMHWVRQAPGQGLEWMGYIFPYNGVAVYNRKFRSRVTLTIDTSSSTAYMELRSLRSDDTAVYYCAREGLGGYWGQGTLVTVSS VL: EIVLTQSPATLSLSPGERATLSCKASQNIDFDGYAYMNWYQHKPGQAPRVLIYSVFNLESGIPARFSGSGSGTDFTLTISSLEPEDFAVYYCQQSHEVPYTFGQGTKLEIK | 93%
hu19 (antibody, V domains shown, 1B2 HC-2/1F5 LC1-2) VH: QVQLVQSGAEVKKPGASVKVSCKASGYTFTDYNMHWVRQAPGQRLEWMGYIFPYNGVAVYNRKFRSRVTLTVDTSSSTAYMELSSLRSEDTAVYYCAREGLGGYWGQGTLVTVSS VL: EIVLTQSPATLSLSPGERATLSCKASQNIDFDGYAYMNWYQHKPGQAPRVLIYSVFNLESGIPARFSGSGSGTDFTLTISSLEPEDFAVYYCQQSHEVPYTFGQGTKLEIK | 73%
